Results on three molecules are retold here after publication PMC6593402, “The Structure of an Injectisome Export Gate Demonstrates Conservation of Architecture in the Core Export Gate between Flagellar and Virulence Type III Secretion Systems” (mBio, 2019).

Where “and” joins values, the source holds several entries; their conditions need not be identical. Identical values can stand only once.

Sequences and labels used below:
B2: Salmonella enterica serovar Typhimurium FliP (natural protein)
chain: QLPGLISQPLAGGGQSWSLSVQTLVFITSLTFLPAILLMMTSFTRIIIVFGLLRNALGTPSAPPNQVLLGLALFLTFFIMSPVIDKIYVDAYQPFSEQKISMQEALDKGAQPLRAFMLRQTREADLALFARLANSGPLQGPEAVPMRILLPAYVTSELKTAFQIGFTIFIPFLIIDLVIASVLMALGMMMVPPATIALPFKLMLFVLVDGWQLLMGSLAQSFYS
notes: FliP, flagellar export gate component, Salmonella enterica serovar Typhimurium; expressed from the complete operon; source: purified from membranes

For data set [1], the target named is B2. Kind of data set: cryo-EM structure; re-refinement in RELION-3 of the original S. Typhimurium FliPQR single-particle data of ref. 17 (particle polishing, per-particle CTF refinement), 3.65 Å; coordinates remodeled and re-refined. Conditions: both partners purified.
Data set [2] deals with the molecule itself. Described as above.
For data set [3], the target named is T1, Salmonella enterica serovar Typhimurium FliR (Salmonella enterica serovar Typhimurium, UniProt P54702 1-264).
T1 construct: FliR, flagellar export gate component, Salmonella enterica serovar Typhimurium; expressed from the complete operon; 'full length' rests on the words 'the same strategy of expression of the complete operon'; source: purified from membranes
T1 sequence: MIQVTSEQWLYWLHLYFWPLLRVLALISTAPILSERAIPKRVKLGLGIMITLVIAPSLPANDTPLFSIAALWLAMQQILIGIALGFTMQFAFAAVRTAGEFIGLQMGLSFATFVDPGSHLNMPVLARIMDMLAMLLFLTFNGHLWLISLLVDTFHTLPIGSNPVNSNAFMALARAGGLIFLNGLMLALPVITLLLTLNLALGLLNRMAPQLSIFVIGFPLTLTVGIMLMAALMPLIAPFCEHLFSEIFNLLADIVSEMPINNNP
The description is as above. The settings on record: both partners purified.

Data set [4] concerns the molecule itself. Kind of data set: cryo-EM structure; SctRST co-expressed from the operon in E. coli, complex purified by the Dual-Strep tag on SctT and SEC; 0.01% LMNG in TBS (100 mM Tris, 150 mM NaCl, 1 mM EDTA, pH 8), 8.4 mg/ml; single-particle reconstruction at 3.5 Å, with further 3D classification of the particle set.

What is called stoichiometry N is the number of molecules, sites or subunits per partner or assembly.

B1: Salmonella enterica serovar Typhimurium FliQ (natural protein)
chain: MTPESVMMMGTEAMKVALALAAPLLLVALITGLIISILQAATQINEMTLSFIPKIVAVFIAIIVAGPWMLNLLLDYVRTLFSNLPYIIG
notes: FliQ, flagellar export gate component, Salmonella enterica serovar Typhimurium; expressed from the complete operon; 'full length' rests on the words 'the same strategy of expression of the complete operon'; source: purified from membranes
In the case of B1, the binding result in data set [1], in data set [2] and in data set [3] was “binds” throughout.
Consider B2, for which the binding result in data set [2] and in data set [3] was “binds” in each case.

B3: Shigella flexneri SctS (Spa9) (natural protein)
chain: MSDIVYMGNKALYLILIFSLWPVGIATVIGLSIGLLQTVTQLQEQTLPFGIKLIGVSISLLLLSGWYGEVLLSFCHEIMFLIKSGV
notes: Spa9 (SctS), export gate component of the Shigella flexneri virulence type III secretion system; expressed from the complete operon (Spa24/Spa9/Spa29); Two to four copies stand in the SctRST complexes; 'full length' rests on the words 'expression of the complete operon'; source: E. coli BL21, co-expressed from plasmid pT12_Spa24929, membranes dissolved in 1% LMNG, purified (StrepTrap, SEC)
Regarding B3, in data set [4], the “stoichiometry N” value was 2 and 3.
